Data reported in the supplement of paper PMC9170038.

Test system: MS2 coat protein
Assay: apparent KD of MS2 coat protein; designed switch direction (-1 OFF switch, 1 ON switch): -1; higher = weaker reporter binding
Method in brief: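 Each step of the titration lasted 0.8–1.5 h at the lowest concentration and 10–20 min at the highest. The protein, SNAP-549-labelled MS2 coat protein, went from 0.7 or 1.5 nM doubling to 3 µM over RNA switches transcribed on Illumina chips by stalled E. coli RNA polymerase. Normalised cluster fluorescence was curve-fitted, and the per-design median over clusters is given as apparent KD.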

[1] = input ligand: microRNA oligo, concentration not stated
[2] = Eterna round: R95, input ligand: FMN 200 uM
[3] = Eterna round: R95, input ligand: microRNA oligo, concentration not stated
[4] = Eterna round: R95, input ligand: none

Row | Sequence | apparent KD of MS2 coat protein (input ligand: FMN 200 uM) [nM] | apparent KD of MS2 coat protein (input ligand: none) [nM] | apparent KD of MS2 coat protein [3] [nM] | further results
1 | CGCGCGCGUGUAGGAUAUGUGUUUGGUUCGGGCGCAGAAGGACAUGAGGAUCACCCAUGUGUGUGUGUGCGCGCAGUGUGUGCG [-30, -27 kcal, 15% A] (Eterna round: R96, puzzle: Exclusion NG 1) | 55 | 41.7 | – | apparent KD of MS2 coat protein [1]: 32.7 nM
2 | CGCUAAGCUAUGCUCGUCAACAUGAGGAUCACCCAUGUGCACUACGGAAGGUACACAACGUACCAAAGACCUCAAAG [Eternabot (Original) Solution 27] (Eterna round: R97, puzzle: Sensor, turn-off variant 1) | 185 | 119 | – | –
3 | CGCUGGACAGGAUAUGUUCUUGGGCACUUGAGGAUCACCCAAGUCAUCAAGAAAUCAGGCACAGAAGGGUUUAUGG [salish99_ex5_r4_021] (Eterna round: R97, puzzle: Exclusion 5) | 18.7 | 19.9 | – | –
4 | CGGAAAUCCUAGGAUAUGCUAGACGAAAGUCUAGCAGAAGGAGGAACAUGAGGAUCACCCAUGUGUCCUAUCCG [Mat - Exclusion 6 - Eli Mod - D16] (Eterna round: R97, puzzle: Exclusion 6) | 26 | 17.1 | – | –
5 | CGGAGCGUGGGUAGGUGCAACAUGAGGAUCACCCAUGUCUCACAAGCUUUUUGCUCAUCUUAUUGUACCUUGGUGCU [Sensor v3, turn-off variant 1 (MOD of JL v.2)] (puzzle: Sensor v3, turn-off variant 1) | – | – | 12.3 | apparent KD of MS2 coat protein [2]: 130 nM; apparent KD of MS2 coat protein [4]: 146 nM
6 | CGGAUACAUGAGGAUCACCCAUGUGAGGAUAUCGUACGUUCGUCGAAAGACGAUCGUACGAGAAGGCAUGACCG [Eli x1 4.36] (Eterna round: R97, puzzle: Exclusion 1) | 64 | 113 | – | –
7 | CGGAUGUGAGGAUAUACAUGAGGAUCACCCAUGUGAGCCAGCUAGCUGACUGGCUCAUGUAGAAGGCACGUCUG [JL-ex3-2.15 Brourd mod] (puzzle: Exclusion 3) | – | – | 42.2 | –
8 | CGGCCGCAAGUCAGGAUAUGGACCUGCUUGGAGGACCAGAAGGGACAUGAGGAUCACCCAUGUGAUGAAAUAAA [BmEX4 A.24] (Eterna round: R97, puzzle: Brourd's mod of Exclusion 4) | 37.8 | 28.3 | – | –
9 | CGGCUGUGAGGAUAUGCCAGGCCGGGCACUCCGCCGCCAGCGCAGAAGGCACAUGAGGAUCACCCAUGUCAAAG [Eternabot (L2) Solution 82] (Eterna round: R97, puzzle: Exclusion 4) | 27.5 | 23.9 | – | –
10 | CGUACUGAAGUGAGGAUAUUGUCUCGGAUACGAAACAAGAAGGCACAUGAGGAUCACCCAUGUAGACAGUACGA [Malc #30 mod 2] (puzzle: Brourd's mod of Exclusion 4) | – | – | 17.3 | apparent KD of MS2 coat protein [2]: 15.1 nM; apparent KD of MS2 coat protein [4]: 15.7 nM
11 | CGUAUCUUUCACGUGAGUAGUGGGUGCAACAGGUGGGUUACAUGAGGAUCACCCAUGUACUCACUUGCUCGUCUUAU [Grok-var2-06] (puzzle: Sensor v3, turn-off variant 2) | – | – | 23.4 | apparent KD of MS2 coat protein [2]: 38 nM; apparent KD of MS2 coat protein [4]: 34.3 nM
12 | CGUCAGUCAGGAUAUACUUACGUAGACAUGAGGAUCACCCAUGUGACGUGGGACUGGUGAGUAGAAGGGACGAACA [EX5 #76] (Eterna round: R97, puzzle: Exclusion 5) | 27.3 | 18.1 | – | –
13 | CGUCCACAUGAGGAUCACCCAUGUUAGGAUAUAAACGCCGUAGUCCAAGGACGGGCCUUUAGAAGGAGCGCGGG [Onaredgeso] (puzzle: Exclusion 1) | – | – | 12.3 | –
14 | CGUCUGUAAGGAUAUGGUUACAUAGACAUGAGGAUCACCCAUGUGACGUGGGACUAGUGAUUAGAAGGUACGAACG [EX5 #66] (Eterna round: R97, puzzle: Exclusion 5) | 77 | 78.6 | – | –
15 | CGUCUGUCAGGAUAUACUUACGUAGACAUGAGGAUCACCCAUGUGACGUGGGACUAGUGAGUAGAAGGGACGAACA [EX5 #74] (Eterna round: R97, puzzle: Exclusion 5) | 68.4 | 46.7 | – | –
16 | CGUCUGUGAGGAUAUGGUAUCGUUUACAUGAGGAUCACCCAUGUUACAUGGGACUAGAGACUAGAAGGUACGAACG [EX5 #49] (Eterna round: R97, puzzle: Exclusion 5) | 212 | 320 | – | –
17 | CGUGCGUAUGUGAGGAUAUGCUGGUCCUUGGAUCGGCAGAAGGCACAUGAGGAUCACCCAUGUGGUGUCGUACC [salish99_Bmod_ex4_074] (puzzle: Brourd's mod of Exclusion 4) | – | – | 123 | –
18 | CGUGCGUAUGUGAGGAUAUGCUGGUCCUUGGAUCGGCAGAAGGCACAUGAGGAUCACCCAUGUGGUGUCGUACU [salish99_Bmod_ex4_081] (puzzle: Brourd's mod of Exclusion 4) | – | – | 216 | –
19 | CGUGCGUAUGUGAGGAUAUGCUGGUCCUUGGAUCGGCAGAAGGCACAUGAGGAUCACCCAUGUGGUGUCGUUCG [salish99_Bmod_ex4_093] (puzzle: Brourd's mod of Exclusion 4) | – | – | 126 | –
20 | CGUGUAGGAGUAGGAUAUGCGUCUAGACUACGAGCAGAAGGACUCCAGGACUUGAGGAUCACCCAAGUGCGUCCCGAGCCGUAG [Mutated MS2 EX1.23] (Eterna round: R96, puzzle: Exclusion NG 1) | 11.9 | 12 | – | apparent KD of MS2 coat protein [1]: 11.7 nM
21 | CUAAAUCAUGUAGGAUAUGCAUAGCGAAGCUAUGCAGAAGGACAUGAGGAUCACCCAUGUUCUUCCGUCUGAGAACAGACGGAA [Mat - Exclusion NG 1 - Mod of JL - D32] (Eterna round: R96, puzzle: Exclusion NG 1) | 164 | 32.5 | – | apparent KD of MS2 coat protein [1]: 21.1 nM
22 | CUAAAUCAUGUAGGAUAUGCAUAGCGAAGCUAUGCAGAAGGACAUGAGGAUCACCCAUGUUCUUCCGUCUGAGUACAGACGGAA [Mat - Exclusion NG 1 - Mod of JL - D31] (Eterna round: R96, puzzle: Exclusion NG 1) | 288 | 34.1 | – | apparent KD of MS2 coat protein [1]: 30.6 nM
23 | CUAACAUGCUGGUGAUCAUACAUGAGGAUCACCCAUGUAACAAGCUUUUUGCUCGUCUUAUAAGAUUACUAGUAUGU [Stov1/10-A4] (Eterna round: R97, puzzle: Sensor, turn-off variant 1) | 21.4 | 21.9 | – | –
24 | CUAACAUGCUGGUGAUCAUACAUGAGGAUCACCCAUGUAACAAGCUUUUUGUUCGUCUUAUAAGAUCACCAGCAUGU [Stov1/9-B3] (Eterna round: R97, puzzle: Sensor, turn-off variant 1) | 13.8 | 18.2 | – | –
25 | CUAAUACAUCAGGAUAUGUGUCGUGAUAGCGACACAGAAGGGAUGACAUGAGGAUCACCCAUGUCAAAGGGUGA [eternacac ex6r4 sub23] (Eterna round: R97, puzzle: Exclusion 6) | 388 | 519 | – | –
